Results: patent US20190011465A1
pKd: −log10 of the molar value.

Key:
human D-dimer (human) = human D-dimer (human) (UniProt P02671); test: competitive inhibition ELISA: HRP-B4 pre-incubated with soluble antigen, then added to a D-dimer-coated plate
D monomer = D monomer (UniProt P02671); test: as above

monoclonal antibody B4
pKd (human D-dimer (human)): 9.01
reactivity (D monomer): 5 µM
